# In PMC11119474:
# Target: HFE-WT-flagM2 (homeostatic iron regulator protein) with β2M-flagM2 (UniProt Q30201)
# Chain of UniProt Q30201 (Q30201 23-348, chain 1 of 2): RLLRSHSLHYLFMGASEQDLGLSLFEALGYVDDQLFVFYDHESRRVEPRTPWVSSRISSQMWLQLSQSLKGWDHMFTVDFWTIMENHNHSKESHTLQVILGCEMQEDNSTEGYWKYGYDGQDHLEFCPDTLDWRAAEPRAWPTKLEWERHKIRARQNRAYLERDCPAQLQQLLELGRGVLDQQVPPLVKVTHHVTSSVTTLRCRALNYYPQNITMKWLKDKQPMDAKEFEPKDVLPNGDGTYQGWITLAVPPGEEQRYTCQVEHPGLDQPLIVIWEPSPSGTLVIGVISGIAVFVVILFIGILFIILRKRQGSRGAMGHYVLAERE
# Chain of UniProt Q30201 (chain, as listed by the source, chain 2 of 2): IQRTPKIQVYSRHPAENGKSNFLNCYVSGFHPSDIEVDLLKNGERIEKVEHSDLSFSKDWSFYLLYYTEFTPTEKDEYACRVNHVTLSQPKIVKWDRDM
substance,measurement,value
"PCSK9-WT-V5 (proprotein convertase subtilisin/kexin type 9, wild type) (from UniProt Q8NBP7 31-152; Q8NBP7 153-692) (natural protein)",HFE level by Western blot in HepG2 PCSK9 KO cells expressing HFE/β2M after 18 h with conditioned medium containing WT PCSK9 (Figure 2A),60 % reduction
